# Laboratory results reported in patent publication US20080220446A1, “Method for Detecting and/or Removing Protein and/or Peptide Comprising a Cross-Beta Structure From an Aqueous Solution Comprising a Protein” (priority 2005, published 2008).
# B1: recombinant β2GPI: recombinant human β2-glycoprotein I made using insect cells (protein)
# chain: GRTCPKPDDLPFSTVVPLKTFYEPGEEITYSCKPGYVSRGGMRKFICPLTGLWPINTLKCTPRVCPFAGILENGAVRYTTFEYPNTISFSCNTGFYLNGADSAKCTEEGKWSPELPVCAPIICPPPSIPTFATLRVYKPSAGNNSLYRDTAVFECLPQHAMFGNDTITCTTHGNWTKLPECREVKCPFPSRPDNGFVNYPAKPTLYYKDKATFGCHDGYSLDGPEEIECTKLGNWSAMPSCKASCKVPVKKATVVYQGERVKIQEKFKNGMLHGDKVSFFCKNKEKKCSYTEDAQCIDGTIEVPKCFKEHSSLAFWKTDASDVKPC
# Experiments:
# tPA = tPA (Homo sapiens, UniProt P00750); assay: Plasminogen-activation assay (tPA activation, S-2251); type: biochemical; conditions: β2GPI preparations, 100 μg ml^−1
# Sequence of tPA (P00750 36-562): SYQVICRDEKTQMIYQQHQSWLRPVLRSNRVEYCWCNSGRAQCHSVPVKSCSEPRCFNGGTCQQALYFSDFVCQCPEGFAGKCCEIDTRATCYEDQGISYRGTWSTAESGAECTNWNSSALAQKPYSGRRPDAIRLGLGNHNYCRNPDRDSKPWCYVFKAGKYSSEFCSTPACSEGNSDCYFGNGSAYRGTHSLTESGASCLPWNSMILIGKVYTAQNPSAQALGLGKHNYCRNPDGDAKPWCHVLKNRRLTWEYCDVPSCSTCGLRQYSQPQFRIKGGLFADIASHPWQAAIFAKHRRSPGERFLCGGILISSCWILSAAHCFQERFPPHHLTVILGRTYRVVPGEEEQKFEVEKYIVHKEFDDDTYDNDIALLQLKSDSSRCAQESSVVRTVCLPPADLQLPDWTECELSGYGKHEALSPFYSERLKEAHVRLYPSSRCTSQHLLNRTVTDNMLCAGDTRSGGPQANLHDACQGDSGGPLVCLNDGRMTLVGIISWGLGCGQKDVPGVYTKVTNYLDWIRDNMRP
# Method: Plasmin (Pls) activity was assayed as described^16. Peptides and proteins that were tested for their stimulatory ability were regularly used at 100 μg ml^−1. […] Chromogenic substrate S-2251 (Chromogenix, Instrumentation Laboratory SpA, Milano, Italy) was used to measure Pls activity. Conversion of zymogen factor XII (#233490, Calbiochem, EMD Biosciences, Inc., San Diego, Calif.) to proteolytically active factor XII (factor XIIa) was assayed by measurement of the conversion of chromogenic substrate Chromozym-PK (Roche Diagnostics, Almere, The Netherlands) by kallikrein. Chromozym-PK was used at a concentration of 0.3 mM. […] The conversion of Chromozym-PK was recorded kinetically at 37° C. for at least 60 minutes. […]
# Formulated protein therapeutics were obtained from the local hospital pharmacy and were used as supplied by the manufacturers. […] Enhancement in fluorescence of ThT and Congo red was measured with all formulated protein therapeutics. […]
# To prepare structurally altered ovalbumin (OVA) with amyloid cross-β structures, purified OVA (Sigma, A-7641, lot 071k7094) was heated to 85° C. […] Native OVA (nOVA) and heat-denatured OVA (dOVA) were tested in the ThT fluorescence assay and in the Plg-activation assay. In the fluorescence assay and in the Plg-activation assay, 25 and 100 μg ml^−1 nOVA and dOVA were tested, respectively. […]
# factor XII = biological target: T1, factor XII (Homo sapiens, UniProt P00748); assay: ELISA, binding of β2GPI to immobilized factor XII
# T1 construct: purified human factor XII from plasma (Calbiochem); purchased Calbiochem; host or cells: human plasma
# T1 sequence (P00748 20-615): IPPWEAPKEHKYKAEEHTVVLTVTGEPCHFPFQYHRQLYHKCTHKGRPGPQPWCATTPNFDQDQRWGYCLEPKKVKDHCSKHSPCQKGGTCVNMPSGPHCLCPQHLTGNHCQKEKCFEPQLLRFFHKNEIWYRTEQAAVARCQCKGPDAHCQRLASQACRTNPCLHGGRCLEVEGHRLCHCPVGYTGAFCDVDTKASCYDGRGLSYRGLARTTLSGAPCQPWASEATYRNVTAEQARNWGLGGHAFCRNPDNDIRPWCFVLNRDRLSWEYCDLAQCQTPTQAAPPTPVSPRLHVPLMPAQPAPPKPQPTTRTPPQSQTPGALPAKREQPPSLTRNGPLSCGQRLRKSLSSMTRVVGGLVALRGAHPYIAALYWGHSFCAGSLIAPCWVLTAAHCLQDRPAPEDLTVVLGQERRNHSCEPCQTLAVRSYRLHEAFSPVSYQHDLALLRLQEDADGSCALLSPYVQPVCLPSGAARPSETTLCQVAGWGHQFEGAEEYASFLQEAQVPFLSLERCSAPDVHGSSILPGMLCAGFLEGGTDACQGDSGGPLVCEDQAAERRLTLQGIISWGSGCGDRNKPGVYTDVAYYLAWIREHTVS
# Method: Binding of purified human factor XII from plasma (Calbiochem) or of purified recombinant human tPA to β2GPI purified from human plasma, or to recombinant human β2GPI was tested in an ELISA. Ten μg of factor XII or tPA in PBS was coated onto wells of a Costar 2595 ELISA plate (Cambridge, USA) and incubated with concentration series of the two β2GPI preparations. Binding of β2GPI was assessed with monoclonal antibody 2B2^22.
molecule,measurement,setting,value
B1,stimulation of tPA-mediated conversion of Plg to Pls,tPA,stimulate tPA-mediated conversion of Plg to Pls
same,binding to factor XII,factor XII,bind
